The nature of data set [1]: purified protein yield per well (BCA); higher = higher soluble expression. The procedure, abridged: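 On an OT-2 robot, lysed cells were processed by binding protein to Ni-charged magnetic beads and releasing it with SUMO protease. Expression took place in E. coli C41(DE3), in 2 mL autoinduction cultures with 100 µg/mL kanamycin, for 2 h at 37 °C followed by 40 h at 18 °C. The Pierce Rapid Gold BCA kit was used to quantify purified protein yield in each well, with values under 25 ug (0.1 mg/mL) below the detection threshold.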

Data set [2] in a line: melting temperature (DSF); higher = more thermostable. How it is done:
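Candidate PET hydrolases were expressed in E. coli C41(DE3) in 2 mL autoinduction cultures in 24-deep-well plates, Ni-bead purified and released by SUMO protease cleavage on an OT-2 robot. Yield per well was measured by BCA; values below 25 ug (0.1 mg/mL) are below the detection threshold. Melting temperature was measured by differential scanning fluorimetry with Sypro Orange, ramping from 25 C at 0.3 C/step.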

A short description of data set [3]: PET hydrolysis, aromatic products released after 48 h (umol product/mg enzyme); higher = more PET depolymerization activity. The procedure, abridged: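 Tagless, SUMO-cleaved candidate enzymes were purified on nickel beads, and 5 μg (50 μL) was added to 3.5 mg amorphous PET film or crystalline PET powder in 450 μL buffer. Buffers were 50 mM NaCitrate (pH 4.5, 5.5), 50 mM NaPhosphate (pH 6.5, 7.5) or glycine (pH 8.5). Sealed plates were incubated 48 h at 40 or 60 °C without shaking. PET hydrolysis activity is the aromatic product in the supernatant, read by absorbance at 260 and 280 nm against buffer blanks and expressed per mg enzyme.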

Setting [4] is: substrate: cryPow, 40 °C, pH 4.5.
Setting [5] is: substrate: cryPow, 40 °C, pH 5.5.
Setting [6] is: substrate: cryPow, 40 °C, pH 6.5.
Where [7] appears, read: substrate: cryPow, 40 °C, pH 7.5.
The mark [8] stands for this setting: substrate: cryPow, 60 °C, pH 4.5.
The mark [9] stands for this setting: substrate: cryPow, 60 °C, pH 5.5.
Where [10] appears, read: substrate: cryPow, 60 °C, pH 6.5.
[11] abbreviates: substrate: cryPow, 60 °C, pH 7.5.
Setting [12] is: substrate: aFilm, 40 °C, pH 4.5.
Setting [13] is: substrate: aFilm, 40 °C, pH 5.5.
The mark [14] stands for this setting: substrate: aFilm, 40 °C, pH 6.5.
Setting [15] is: substrate: aFilm, 40 °C, pH 7.5.
[16] abbreviates: substrate: aFilm, 60 °C, pH 4.5.
[17] abbreviates: substrate: aFilm, 60 °C, pH 5.5.
[18] abbreviates: substrate: aFilm, 60 °C, pH 6.5.
Setting [19] is: substrate: aFilm, 60 °C, pH 7.5.

± gives the standard deviation of the averaged measurements.

On to “ADNPYQRGPDPTLASVSAQRGTFATAQVAVPAGDGFGGGMIYYPTDTSQGTFGAVAIVPGYTARFSVEEAWMGHWLASFGFVVIGVETNSTNDFDTARGTQLLAALDYLTQRSSVRDRVDASRQSVVGHSMGGGGALYAAGQRASLKAAVGLAPYKPSGNPTNVRVPTMIISGQNDTVVTPSYATGLYNTLPATTESAYMEFTGADHLFPTRANTLEMRILIPWLKIFVDSDNRYSQFLCPLQDSTGIRGYRSTCPFLPNPTTSPSTTAPTTPPTTPPTTPPTGACSATYRTVNSWPGGFQGEVTVSAGSTPVDGWAVRWTLASGQAVTQVWNGALSVSGSAVTVRNTTYNGSLGANASTTFGFLASGSPTPVSLTCTSP [ESM033]”, for which the “purified protein yield per well” value in data set [1] was 594 µg. For the same sequence, in data set [2], the melting temperature was determined as 53.8 C. Further, the PET hydrolysis is 9 in data set [3] (setting [4]); 25 in data set [3] (setting [5]); 35 in data set [3] (setting [6]); 6 in data set [3] (setting [7]); under 3 in data set [3] (setting [8]); under 3 in data set [3] (setting [9]). The PET hydrolysis in data set [3] (setting [10]) and in data set [3] (setting [11]) was under 3 throughout.
In the case of “ATGPSSPCTNCTRGPNPTVAALKSNSGPFSTAKFSVSGYLKGFGDSTVYYPTNTTGKMGAIAVIPGYLSYESSIEWWGPRLASHGFVVITMNTNTIYDQPDSRATQLSKALDYVIAQSNSSSSPIAGKVDSTRLGAIGWSMGGGGSLKLSTQRSLNAIIPQAPYYAGSNSFNTIKTPTLILACGVDAVAPVAAHASPFYNKIPNTTPKAFLEIYGGSHFCANSGYPNQDLLGMYGISWMKRFIDFDKRYSQFLCGPNHQADLAISEYRQNCNY [ESM048]”, the “purified protein yield per well” value in data set [1] amounted to 48 µg. In addition, the melting temperature in data set [2] was 49.6 C. Also, the PET hydrolysis in data set [3] (setting [4]), in data set [3] (setting [5]), in data set [3] (setting [6]) and in data set [3] (setting [7]) was under 3 in each case.
For “AGNPYQRGPDPTLASVAASRGTFATAQVSVPPGNGFNGGTIYYPTDTTQGTWGAVAIVPGYTALFANEEAWMGPWLASFGFVVIGIETNSRNDFDTARGTQLLAALDYLTQKSPVRDRVDSARLGVIGHSMGGGGVVYATEHRPSLKAAVALAPFSPSQDMSTDHVPTMVMAGQNDTVVTPSYLDGLYATMPASAQSDFVQLAGADHVAYTHPNTTEMRLLIPWLKIFLDDDTRYTQFLCPLKDSTGVSMYRAKCPYVPPGGPTTSPTPTTTPTPPDGGACSATYRTVNSWSGGYQGEITVTAGGAAIDGWTVRWSLGGGQTVTQVWNGTLSTSGSTASVANASYNGSLQASASTTFGFLANGTPSTPALTCSSP [ESM084]”, the “purified protein yield per well” value in data set [1] was 119 µg. This sequence also displayed a melting temperature in data set [2] of 43.9 C. In addition, the PET hydrolysis in data set [3] (setting [4]) is under 3; in data set [3] (setting [5]), 5; in data set [3] (setting [6]) it was under 3; in data set [3] (setting [7]), under 3; in data set [3] (setting [8]), under 3; in data set [3] (setting [9]), under 3. Besides, the PET hydrolysis in data set [3] (setting [10]) and in data set [3] (setting [11]) was under 3 each time.
For “AANPYERGPAPTAASIAATTGPFAVASVSVPRGNGFGGGVIYYPTSTSQGTFGGVAISPGLNGTWAGIAWLGPRLASQGFVIFGIETNNLNDSPASRGTQLLAALDFLTRSSSVRTRVDASRLAVAGHSMGGGGALSAALQRPSLQAAIGNAPHLPSGSLATDRVPTLIYAMQNDTLVTPSRLTSLYNSMPATTERAYIEVAGAGHNYIGQPSTTLARTMIPWLKIFVDNDARYSQFLCPLSNQSGISQYRNSCPLISTTTLSTGVDSTSGLAVR [ESM157]”, the “purified protein yield per well” value in data set [1] was determined as 313 µg. Moreover, the melting temperature in data set [2] amounted to 61 C. Besides, the PET hydrolysis in data set [3] (setting [12]), in data set [3] (setting [13]), in data set [3] (setting [14]), in data set [3] (setting [15]), in data set [3] (setting [16]) and in data set [3] (setting [17]) was under 3 throughout. For the same sequence, the PET hydrolysis in data set [3] (setting [18]) is under 3; in data set [3] (setting [19]), under 3; in data set [3] (setting [4]) it was under 3; in data set [3] (setting [5]) it was 17.5 ± 2.1; in data set [3] (setting [6]), 50; in data set [3] (setting [7]) it was 69.5 ± 3.5. Also, the PET hydrolysis in data set [3] (setting [8]) was under 3; in data set [3] (setting [9]), 3; in data set [3] (setting [10]), 7.5 ± 0.71; in data set [3] (setting [11]), 14.5 ± 0.71.
As to “ETEYRKGPDPTEATVTAALGPFATASVSVPSSVAGFGGGVIHYPTDTSQGTFGAVAVAPGFLGSSANYAWMGPRLASQGFVVFLINTDSRLDQPPSRGDQLLAALDYLVTSSSVRARIDASRLAVAGHSMGGGGTLEAATDRPGLQAAIPLQPWHTVKSWPNVQVPTLIIGAENDTTAPVASHAEPFYVSIPAAAEKAYLELNNAEHRVGTAGDTTQAKFMIVWLKRYVDNDTRYEQFICPPPPAPSSEIQEYRNTCPG [TEP171]”, in data set [1], the “purified protein yield per well” value came to 59.3 µg. Also, the melting temperature in data set [2] turned out to be 44.2 C. In addition, the PET hydrolysis in data set [3] (setting [4]), in data set [3] (setting [5]), in data set [3] (setting [6]), in data set [3] (setting [7]), in data set [3] (setting [8]) and in data set [3] (setting [9]) was under 3 in each case. For the same sequence, the PET hydrolysis in data set [3] (setting [10]) and in data set [3] (setting [11]) was under 3 in each case.
For “ADNPFQRGPNPTVASVAATRGTFATAQTSVPAGNGFGGGVVYYPTDTSQGTFGGVAIVPGYSALFADEEAWMGPWLASFGFVVIGIETNSRTDSADARGTELLAALDYLTQRSPVRDRVDPNRLSVVGHSAGGAGVLSALLRRPSLKAGVGLAPGSPVGNYDLYSDRVPTMFISGQRDTTVTQSYLNGLYSTLPATTPSAWVEITGVDHLFATRANTTEMRVLIPWLKIWVDNDTRYTQFLCPLADSTGISMYRDKCPYVPPGGSSPSPSASPSSTPSRSPSPSPSPSPSPSPSPSPSPSPSPSPSASPSLPPPGACVAEYRTMNSWPGGYQAMVTVTAGGTAVNGWTVRWTLGGGQTISQLWNGTLSTSGSAVTVKNASYNGSIPASGSATFGFLATGTPSTPSLTCTSP [ESM036]”, the “purified protein yield per well” value in data set [1] amounted to 376 µg. In addition, the melting temperature in data set [2] turned out to be 49.6 C. Moreover, the PET hydrolysis in data set [3] (setting [12]), in data set [3] (setting [13]), in data set [3] (setting [14]), in data set [3] (setting [15]), in data set [3] (setting [16]) and in data set [3] (setting [17]) was under 3 each time. Moreover, the PET hydrolysis in data set [3] (setting [18]), in data set [3] (setting [19]), in data set [3] (setting [4]), in data set [3] (setting [5]), in data set [3] (setting [6]) and in data set [3] (setting [7]) was under 3 each time. Moreover, the PET hydrolysis in data set [3] (setting [8]), in data set [3] (setting [9]), in data set [3] (setting [10]) and in data set [3] (setting [11]) was under 3 throughout.
